Reference: the supplement of paper PMC10724198
± gives the standard deviation of the averaged measurements.

Test system: Saccharomyces cerevisiae
Experiment: protein stability index of tFT-peptide fusion (C-terminal peptide) (PSI (0-1 scale)); higher = more stable (slower turnover)
Details: genetic background: wild type; temperature: 30 C
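Further: PSI is a weighted mean of sequencing reads over stability bins, variants kept only with over 10 reads, mCherry proximal and sfGFP distal, peptide attached via GGGS linker.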

Sequence	protein stability index
RSICTEGLDIGC	0.659 ± 0.033
RSLGLGGRGFWG	0.715 ± 0.099
RSLPPGFPSTLL	0.652 ± 0.014
RSMSQKSRIVSF	0.67 ± 0.14
RSNVGCDLKQTC	0.6556 ± 0.0027
RSPPAVSLVTIP	0.6911 ± 0.0052
RSPPLTPPPCPS	0.6931 ± 0.005
RSPQPPPSPSSG	0.692 ± 0.027
RSQICWFFFQCI	0.53 ± 0.036
RSRNAHAPPLAG	0.764 ± 0.065
RSRPPVHVAAAL	0.673 ± 0.074
RSTFSGSSTLVY	0.568 ± 0.0084
RSTIEHILLFFI	0.668 ± 0.015
RSVGMFSCRPVW	0.698 ± 0.017
RSWSSIASSSTM	0.7285 ± 0.0037
RTAKTSARATTL	0.705 ± 0.039
RTCRYRRVPAET	0.729 ± 0.066
RTEATFKTTPVG	0.687 ± 0.013
RTGTIPAPFHHE	0.675 ± 0.0074
RTHIKEYKNNKI	0.647 ± 0.035
RTNGNIKNVNIE	0.684 ± 0.07
RTNNIAKNSKNR	0.713 ± 0.058
RTPQPQPVVVRR	0.776 ± 0.041
RTPQSPRVSVRN	0.6586 ± 0.0027
RTSKSLSKVESW	0.6415 ± 0.0031
RTTERLTRWEFG	0.686 ± 0.03

Sequence	protein stability index
RTVRRNPHGRPR	0.6832 ± 0.005
RTWLLRTVFPRL	0.704 ± 0.024
RVAWAGGGAAGS	0.667 ± 0.065
RVEIKNKKKIRT	0.696 ± 0.083
RVGGGGGPSGVV	0.751 ± 0.029
RVGGGGWPSGVV	0.747 ± 0.047
RVGGGSGGEGRG	0.6553 ± 0.0043
RVGLGGRPSGGW	0.64 ± 0.047
RVGLRGGCGSNG	0.725 ± 0.029
RVHRETLLPTGQ	0.644 ± 0.036
RVLIPLASSPPL	0.77 ± 0.23
RVLPASRFSFLF	0.743 ± 0.036
RVMGWWGARVLG	0.697 ± 0.027
RVNTFHANKWRW	0.7134 ± 0.0013
RVPLSPSLRYFV	0.653 ± 0.026
RVPNLYLRSRKI	0.68 ± 0.034
RVQELEDGCAAE	0.658 ± 0.024
RVRGGAGRGKRE	0.686 ± 0.032
RVRLAPAPASIR	0.7458 ± 0.0047
RVRVGGPRESGQ	0.7054 ± 0.00082
RVSVYTFVSLSN	0.619 ± 0.035
RVSYLLPFCSSV	0.762 ± 0.11
RVVYANSRVSDN	0.6479 ± 0.0055
RVWVGGPRESGQ	0.72118 ± 0.00022
RVYGSFFYVSLL	0.66 ± 0.13
RWCVGFRLCHDS	0.636 ± 0.019

Sequence	protein stability index
RWGPGRSGSRGA	0.652 ± 0.022
RWGWGGYRGGVP	0.7572 ± 0.0061
RWLGNPLLQRYH	0.567 ± 0.043
RWLWRLDNRIVI	0.62081 ± 4.7e-05
RYCSLARSCPSG	0.678 ± 0.027
RYGTGQLDYCFI	0.717 ± 0.018
RYHQFSFQSNKS	0.764 ± 0.072
RYKISKKERIKK	0.663 ± 0.072
RYKTESKRDIEK	0.696 ± 0.062
RYLFAAVSFGYA	0.726 ± 0.032
RYLTLVTNLLCP	0.647 ± 0.0024
RYPLRPLLLPPP	0.741 ± 0.16
RYRDSKPDIVDC	0.723 ± 0.038
RYSPPPPPIPSP	0.715 ± 0.0022
RYTQQTTATYHN	0.749 ± 0.079
RYTTCPVLNPGV	0.618 ± 0.018
RYWCATHIGACL	0.788 ± 0.093
SAFGGAGVLGHR	0.6799 ± 0.0027
SAIAVDSPLGRG	0.653 ± 0.023
SALGPVLCRGSY	0.675 ± 0.067
SALSLDNLIHSY	0.676 ± 0.071
SAPALPCQSPRL	0.696 ± 0.011
SAPCHAHHLPYQ	0.73 ± 0.026
SAPPLFPCPSPA	0.68 ± 0.03
SARPTVNRPARN	0.6933 ± 0.0049
SARVVCSSCFPM	0.668 ± 0.017

Sequence	protein stability index
SAVLLLNAGGLV	0.688 ± 0.0071
SAVVPACIPKCE	0.694 ± 0.035
SAWHRGCSCHLC	0.682 ± 0.029
SAWVGVGHGRVS	0.6113 ± 0.0056
SAYQDFTAILLG	0.703 ± 0.16
SCGVTRVGALST	0.664 ± 0.013
SCGYRGSSAFSF	0.62 ± 0.2
SCIRATGSNVSP	0.664 ± 0.029
SCKLSPLGLLLL	0.618 ± 0.016
SCLGGRISSRCG	0.69 ± 0.017
SCPSLPPPPPCL	0.735 ± 0.04
SCQISVRLHVSH	0.612 ± 0.016
SCQSPSSQEYST	0.751 ± 0.056
SCRKGLSPRPPS	0.7 ± 0.007
SCSFPPSPFLCG	0.677 ± 0.03
SCSLGIRSFFSL	0.7 ± 0.021
SCTRASSMSLSP	0.674 ± 0.024
SCVAGSSHWTSI	0.712 ± 0.24
SCVTLTGLSGDK	0.698 ± 0.016
SCWHRNRKIILD	0.573 ± 0.056
SDFGSFRFRSIV	0.5773 ± 0.0018
SDKVLSSTEIQN	0.719 ± 0.039
SDNIKIPKEKRK	0.668 ± 0.026
SEGCASLSGRVG	0.665 ± 0.047
SEGCPILALVKP	0.638 ± 0.035
SEHSTYFSRNCF	0.726 ± 0.032

Sequence	protein stability index
SEIFTNALLISI	0.651 ± 0.026
SEIKVIMNESKS	0.679 ± 0.009
SEIRIQTFETGG	0.671 ± 0.061
SEWFETRNPMSI	0.685 ± 0.096
SEYPCSDRAEVA	0.65 ± 0.017
SFASGFFVVKDF	0.658 ± 0.031
SFCHWHLFPPRS	0.711 ± 0.041
SFFLSFFSPLVL	0.63 ± 0.038
SFFSPFPSRICS	0.829 ± 0.032
SFHIAARFRSLP	0.719 ± 0.062
SFLFDSPYFVAI	0.699 ± 0.018
SFLPRVVVRSTP	0.667 ± 0.015
SFLSMDANDLLS	0.7 ± 0.029
SFLVPRARPVLL	0.688 ± 0.041
SFMVISSGSSVR	0.725 ± 0.023
SFNLFFVVSPAL	0.608 ± 0.097
SFPRPPSSPSPL	0.714 ± 0.021
SFRASVSAPCLF	0.683 ± 0.067
SFRFVLVQCSGV	0.5601 ± 0.0046
SFSFPPHPLKSL	0.723 ± 0.1
SFVECVDVMGRW	0.757 ± 0.056
SFYSSPTVPFLP	0.717 ± 0.044
SGAGGGVWWGGV	0.73 ± 0.0092
SGAGRRMGGARE	0.657 ± 0.051
SGAIDRSAYIDG	0.622 ± 0.028
SGCGVRFLLCRL	0.801 ± 0.065

Sequence	protein stability index
SGCIYLLQTPME	0.636 ± 0.012
SGCSWRGSPVKE	0.636 ± 0.0076
SGGGCVYRGGRG	0.633 ± 0.015
SGHELLGSVFRR	0.681 ± 0.076
SGIILEKGGGGN	0.679 ± 0.026
SGLGRLRSGRVL	0.698 ± 0.012
SGLRHLLPSGHN	0.711 ± 0.041
SGLRLQLLVGHT	0.632 ± 0.013
SGNALSGVIRNC	0.783 ± 0.045
SGPGGWNREVGR	0.6841 ± 0.0024
SGPHIAFYTSCP	0.73 ± 0.053
SGRAGAPSVIRR	0.694 ± 0.053
SGRDWYHSLGGA	0.742 ± 0.052
SGRGLPLGGAFD	0.727 ± 0.026
SGRSQHFVSFLR	0.664 ± 0.018
SGRSSQNHRCWI	0.684 ± 0.012
SGSGGGGMRLGS	0.701 ± 0.026
SGSGLRIIRSSP	0.657 ± 0.011
SGSIRHSSPLPT	0.75 ± 0.12
SGTRIQFRLGMS	0.723 ± 0.064
SGVAAGLVAGSL	0.673 ± 0.12
SGVIRLRAVELF	0.5726 ± 0.0017
SGVKKGRSEGKR	0.629 ± 0.051
SGVSICLSGMGK	0.611 ± 0.017
SGWASVCARAAI	0.745 ± 0.06
SGWRYPFGCGAS	0.763 ± 0.1

Sequence	protein stability index
SGYWWIYMSELS	0.666 ± 0.019
SHILPCTCPLAA	0.574 ± 0.044
SHLPPPSRFSSD	0.677 ± 0.077
SHPPPTLLSYLP	0.746 ± 0.0079
SHPRHSHLPFSP	0.725 ± 0.079
SHRTHPAAPHAP	0.738 ± 0.056
SHSRRSNMTLFV	0.721 ± 0.073
SHTNVILQDVTI	0.655 ± 0.087
SIDPAEFSSTLP	0.7125 ± 0.0029
SIEEKRNKIDKI	0.769 ± 0.2
SIENEYAMERKK	0.707 ± 0.056
SIKDKFIVITLK	0.629 ± 0.11
SIKKQLQKKKQK	0.743 ± 0.1
SIKNTQRFKIRN	0.663 ± 0.034
SIRGNGCVVCGT	0.708 ± 0.093
SISPWFFFFLDW	0.579 ± 0.014
SISSFLSLLFFR	0.639 ± 0.062
SIVRRVRDRIGR	0.641 ± 0.038
SIWLPPSRPPPS	0.766 ± 0.015
SKGISARLAREG	0.653 ± 0.038
SKKHIKKKQKRK	0.687 ± 0.053
SKKKKRRKEQEK	0.745 ± 0.03
SKLTRHVDLHGS	0.6898 ± 0.0017
SKLTSRPLSKVP	0.718 ± 0.048
SKQGNKADGCAK	0.603 ± 0.054
SKRQKKENLKET	0.633 ± 0.044

Sequence	protein stability index
SKRRLTGYRKTK	0.669 ± 0.052
SKSDRNMQTIHY	0.605 ± 0.067
SKYKITIYWREE	0.568 ± 0.0096
SLAAPFPSLPNF	0.652 ± 0.036
SLAASPPSPLLP	0.63 ± 0.09
SLAFSVFWSIFL	0.585 ± 0.015
SLALASTLRLPP	0.69 ± 0.047
SLASHVLSRPTL	0.7 ± 0.047
SLCRQHSVFSLA	0.653 ± 0.044
SLDILVSVDGRL	0.6546 ± 0.001
SLERWNPGGSGV	0.656 ± 0.025
SLGLSRSRLPKN	0.682 ± 0.043
SLHPSPPPLLPP	0.642 ± 0.093
SLIPSRSLGFLH	0.65 ± 0.05
SLLPPRLPPPPF	0.633 ± 0.016
SLLPSHFASFSP	0.744 ± 0.03
SLLRLFFLALSY	0.542 ± 0.071
SLLSFLLRSFFP	0.722 ± 0.065
SLMCFDLSTFLG	0.634 ± 0.08
SLMLPIFLPLSR	0.698 ± 0.04
